For the test, the target named is HOIP PUB domain (aa 1–184) (UniProt Q96EP0). The experiment in a line: fluorescence polarisation; FITC-Ahx-labeled PIM peptides with purified PUB domains; triplicate. In general terms: In fluorescence polarisation assays a small probe gives low polarisation when free and higher when bound to something large.

The values below come from PMC5031558.

Sequence of HOIP PUB domain (aa 1–184) (Q96EP0 1-184): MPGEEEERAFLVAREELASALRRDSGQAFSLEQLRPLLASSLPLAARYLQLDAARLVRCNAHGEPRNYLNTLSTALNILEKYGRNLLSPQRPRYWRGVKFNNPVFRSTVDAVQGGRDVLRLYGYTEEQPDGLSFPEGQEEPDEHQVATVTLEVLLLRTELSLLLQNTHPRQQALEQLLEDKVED

Consider FITC-Ahx-labeled SPATA2 PIM peptide, for which the dissociation constant Kd (commonly the free concentration of one partner at which half of the binding sites on the other are occupied at equilibrium, for simple one-to-one binding) was found to be 300 nM. The substance FITC-Ahx-labeled OTULIN PIM peptide gave a Kd of 300 nM.
